Assay results taken from the supplement of paper PMC10065799, “High-throughput profiling of sequence recognition by tyrosine kinases and SH2 domains using bacterial peptide display” (eLife, 2023).

test system: AncSZ; assay: phosphorylation enrichment, bacterial display (enrichment ratio); higher = better substrate or ligand; peptides without Tyr show the background;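 further: 11-residue human phosphosite peptides and single-mutation variants displayed on the E. coli surface, counted by deep sequencing, each peptide's frequency after selection divided by its frequency in the unselected input library; frequency after pTyr selection over input frequency; kinase dosed for 20-30% of maximal phosphorylation in three min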
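Wherever SH2 binding enrichment of the phosphorylated peptide, bacterial display is given: peptide library displayed on the E. coli surface as eCPX fusions, selected cells deep-sequenced, score is each peptide's frequency after selection divided by its frequency in the input.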

Sequence	phosphorylation enrichment
EAEPFYCSLRD [NPHS1_Y1139_R1140C_YF]	1.54
HQKKPYCHAHN [NRAP_Y53]	1.82
LTERDYSFVTT [ACTG2_Y199_G198D]	2.56
LAVPLYKNGVK [CPS1_Y1069]	1.23
YSNKLHYQLEQ [PDPR_Y109_Y109H]	1.12
SVMAEYGLFGA [VSX2_Y219_YF]	0.737
ADDSFYTARSA [ZAP70_Y493_YF]	0.822
INNIDYYKKTT [FGFR2_Y656]	0.808
EWQQIYTFDSG [JUP_Y20_T19I_YF]	1.78
TRSYDYMEGED [FGF7_Y58_G62E]	1.41
CTTIHYNFMCH [TP53_Y234_N239H_YF]	0.866
VDHFGYNKDDK [APOB_Y740_T741N]	1.02
VATRWYRSLEL [CDKL5_Y177_P180L]	0.825
HFGCVYRGTLL [MET_Y1093_H1094R]	1.44
PEIIAYQPFGK [PRKCG_Y529_YF]	1.03
RAILNYIASKF [GSTA3_Y74_YF]	1.84
VRSTEYPCAGL	0.586

Sequence	phosphorylation enrichment
TKDTFYQQPMF [GBA_Y451_K452Q]	1.07
KEIHAYRKLLE [LMNA_Y376_M371K]	0.63
APGNAYGDAGY [SYP_Y250_D248N]	0.731
PFGQWYESHFA [RPS8_Y113_R110G_YF]	1.3
FQEKSYIKGTS [LCTL_Y331_L326F]	0.625
NHRNQYQALKT [CLSPN_Y887_P892T]	0.536
EFNLMYHGTKE [IRF6_Y97_D98H]	0.923
VVSLFYGTALF [OR10C1_Y251_M246V]	1.25
VRFMADTDETF [F8_Y450_Y450D]	1.21
VQNIVYRTASI [CYP39A1_Y102]	0.706
SSWKLYPRMLR [HAO1_Y50_R46S]	0.773
KVALVYGQMNQ [ATP5F1B_Y269_E274Q]	0.726
AGREIYESEKC [TTN_Y4424_D4427E]	0.856
TYQYKYPEGSS [TGM4_Y440_E437Q]	0.85
TENAGYFFQVS	1.11
ASRKFYAMKIL [AKT3_Y174_G171R_YF]	0.725

target: Grb2 SH2 (UniProt P62993); assay: SH2 binding enrichment of the phosphorylated peptide, bacterial display (enrichment ratio); higher = better substrate or ligand; peptides without Tyr show the background

SH2 binding enrichment	Sequence
0.941	EAEPFYCSLRD [NPHS1_Y1139_R1140C_YF]
1.64	HQKKPYCHAHN [NRAP_Y53]
0.792	LTERDYSFVTT [ACTG2_Y199_G198D]
0.86	SVMAEYGLFGA [VSX2_Y219_YF]
0.883	ADDSFYTARSA [ZAP70_Y493_YF]
1.23	EWQQIYTFDSG [JUP_Y20_T19I_YF]
1.73	CTTIHYNFMCH [TP53_Y234_N239H_YF]
1.06	PEIIAYQPFGK [PRKCG_Y529_YF]
1.03	VRSTEYPCAGL
0.681	APGNAYGDAGY [SYP_Y250_D248N]
1.15	AGREIYESEKC [TTN_Y4424_D4427E]

More lines, now with the values behind:

Sequence	SH2 binding enrichment
LAVPLYKNGVK [CPS1_Y1069]	1.12
YSNKLHYQLEQ [PDPR_Y109_Y109H]	0.98
INNIDYYKKTT [FGFR2_Y656]	0.743
TRSYDYMEGED [FGF7_Y58_G62E]	0.977
VDHFGYNKDDK [APOB_Y740_T741N]	0.665
VATRWYRSLEL [CDKL5_Y177_P180L]	0.717
HFGCVYRGTLL [MET_Y1093_H1094R]	0.868
RAILNYIASKF [GSTA3_Y74_YF]	0.927
TKDTFYQQPMF [GBA_Y451_K452Q]	0.793
KEIHAYRKLLE [LMNA_Y376_M371K]	0.68
PFGQWYESHFA [RPS8_Y113_R110G_YF]	1.15
FQEKSYIKGTS [LCTL_Y331_L326F]	0.918
NHRNQYQALKT [CLSPN_Y887_P892T]	0.994
EFNLMYHGTKE [IRF6_Y97_D98H]	0.827
VVSLFYGTALF [OR10C1_Y251_M246V]	0.713
VRFMADTDETF [F8_Y450_Y450D]	0.676
VQNIVYRTASI [CYP39A1_Y102]	0.689
SSWKLYPRMLR [HAO1_Y50_R46S]	0.904
KVALVYGQMNQ [ATP5F1B_Y269_E274Q]	0.703
TYQYKYPEGSS [TGM4_Y440_E437Q]	0.834
TENAGYFFQVS	0.61
ASRKFYAMKIL [AKT3_Y174_G171R_YF]	0.817

target: c-Src SH2; assay: as above

SH2 binding enrichment	Sequence
0.668	EAEPFYCSLRD [NPHS1_Y1139_R1140C_YF]
1.29	HQKKPYCHAHN [NRAP_Y53]
0.678	LTERDYSFVTT [ACTG2_Y199_G198D]
0.471	SVMAEYGLFGA [VSX2_Y219_YF]
0.419	ADDSFYTARSA [ZAP70_Y493_YF]
0.555	EWQQIYTFDSG [JUP_Y20_T19I_YF]
1.75	CTTIHYNFMCH [TP53_Y234_N239H_YF]
0.664	PEIIAYQPFGK [PRKCG_Y529_YF]
0.615	VRSTEYPCAGL
0.441	APGNAYGDAGY [SYP_Y250_D248N]
0.844	AGREIYESEKC [TTN_Y4424_D4427E]

More lines, now with the values behind:

Sequence	SH2 binding enrichment
LAVPLYKNGVK [CPS1_Y1069]	0.512
YSNKLHYQLEQ [PDPR_Y109_Y109H]	0.606
INNIDYYKKTT [FGFR2_Y656]	0.415
TRSYDYMEGED [FGF7_Y58_G62E]	10.4
VDHFGYNKDDK [APOB_Y740_T741N]	0.465
VATRWYRSLEL [CDKL5_Y177_P180L]	0.373
HFGCVYRGTLL [MET_Y1093_H1094R]	0.565
RAILNYIASKF [GSTA3_Y74_YF]	0.461
TKDTFYQQPMF [GBA_Y451_K452Q]	0.902
KEIHAYRKLLE [LMNA_Y376_M371K]	0.459
PFGQWYESHFA [RPS8_Y113_R110G_YF]	0.919
FQEKSYIKGTS [LCTL_Y331_L326F]	0.416
NHRNQYQALKT [CLSPN_Y887_P892T]	1.17
EFNLMYHGTKE [IRF6_Y97_D98H]	0.656
VVSLFYGTALF [OR10C1_Y251_M246V]	0.353
VRFMADTDETF [F8_Y450_Y450D]	0.403
VQNIVYRTASI [CYP39A1_Y102]	0.447
SSWKLYPRMLR [HAO1_Y50_R46S]	0.516
KVALVYGQMNQ [ATP5F1B_Y269_E274Q]	0.434
TYQYKYPEGSS [TGM4_Y440_E437Q]	0.631
TENAGYFFQVS	0.333
ASRKFYAMKIL [AKT3_Y174_G171R_YF]	0.543

target: SHP2-C SH2; assay: as above

SH2 binding enrichment	Sequence
0.616	EAEPFYCSLRD [NPHS1_Y1139_R1140C_YF]
1.79	HQKKPYCHAHN [NRAP_Y53]
1.37	LTERDYSFVTT [ACTG2_Y199_G198D]
0.719	SVMAEYGLFGA [VSX2_Y219_YF]
1.55	ADDSFYTARSA [ZAP70_Y493_YF]
0.92	EWQQIYTFDSG [JUP_Y20_T19I_YF]
1.92	CTTIHYNFMCH [TP53_Y234_N239H_YF]
1.11	PEIIAYQPFGK [PRKCG_Y529_YF]
1.08	VRSTEYPCAGL
0.52	APGNAYGDAGY [SYP_Y250_D248N]
1.09	AGREIYESEKC [TTN_Y4424_D4427E]

Continued, sequence first:

Sequence	SH2 binding enrichment
LAVPLYKNGVK [CPS1_Y1069]	0.708
YSNKLHYQLEQ [PDPR_Y109_Y109H]	0.54
INNIDYYKKTT [FGFR2_Y656]	0.364
TRSYDYMEGED [FGF7_Y58_G62E]	1.05
VDHFGYNKDDK [APOB_Y740_T741N]	0.595
VATRWYRSLEL [CDKL5_Y177_P180L]	0.551
HFGCVYRGTLL [MET_Y1093_H1094R]	0.963
RAILNYIASKF [GSTA3_Y74_YF]	0.611
TKDTFYQQPMF [GBA_Y451_K452Q]	0.637
KEIHAYRKLLE [LMNA_Y376_M371K]	0.569
PFGQWYESHFA [RPS8_Y113_R110G_YF]	1.12
FQEKSYIKGTS [LCTL_Y331_L326F]	0.553
NHRNQYQALKT [CLSPN_Y887_P892T]	1
EFNLMYHGTKE [IRF6_Y97_D98H]	0.784
VVSLFYGTALF [OR10C1_Y251_M246V]	0.516
VRFMADTDETF [F8_Y450_Y450D]	0.542
VQNIVYRTASI [CYP39A1_Y102]	0.889
SSWKLYPRMLR [HAO1_Y50_R46S]	0.803
KVALVYGQMNQ [ATP5F1B_Y269_E274Q]	0.636
TYQYKYPEGSS [TGM4_Y440_E437Q]	0.586
TENAGYFFQVS	0.654
ASRKFYAMKIL [AKT3_Y174_G171R_YF]	0.679
